# T1: human B7-H4 expressed on cells (CHOK-1 B7-H4, SK-BR3, CAMA-1, MDA-MB-468, MX-1, OVCAR-3) (human, UniProt Q7Z7D3 25-282)
# T1 construct: whole, on cells; also called B7-H4 expressed cell line; B7-H4 positive cancer cell lines
# T1 sequence (looked up): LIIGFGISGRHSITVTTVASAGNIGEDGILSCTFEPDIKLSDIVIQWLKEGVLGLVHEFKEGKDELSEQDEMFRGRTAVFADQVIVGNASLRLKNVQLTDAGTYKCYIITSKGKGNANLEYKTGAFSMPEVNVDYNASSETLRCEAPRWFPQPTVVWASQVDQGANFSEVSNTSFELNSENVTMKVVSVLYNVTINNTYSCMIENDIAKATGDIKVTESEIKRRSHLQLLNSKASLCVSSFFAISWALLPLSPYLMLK
# T2: B7-H6
# T2 construct: one of the 'other B7-family proteins'; Commonly known as NCR3LG1
# T2 chain: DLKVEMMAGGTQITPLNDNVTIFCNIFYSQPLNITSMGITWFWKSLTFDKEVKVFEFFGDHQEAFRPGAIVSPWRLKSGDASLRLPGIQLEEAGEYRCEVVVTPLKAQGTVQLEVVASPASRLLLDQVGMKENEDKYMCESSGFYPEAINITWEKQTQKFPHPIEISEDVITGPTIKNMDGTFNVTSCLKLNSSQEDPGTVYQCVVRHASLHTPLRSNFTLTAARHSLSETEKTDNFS
# T3: B7-2
# T3 construct: one of the 'other B7-family proteins'; Commonly known as CD86
# T3 chain: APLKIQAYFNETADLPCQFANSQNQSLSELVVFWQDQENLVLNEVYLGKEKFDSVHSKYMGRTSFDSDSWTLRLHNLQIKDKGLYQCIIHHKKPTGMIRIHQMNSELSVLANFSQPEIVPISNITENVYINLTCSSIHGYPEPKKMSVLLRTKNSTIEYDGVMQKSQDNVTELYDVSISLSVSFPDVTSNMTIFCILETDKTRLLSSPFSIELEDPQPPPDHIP
# T4: B7-1
# T4 construct: one of the 'other B7-family proteins'; Commonly known as CD80
# T4 chain: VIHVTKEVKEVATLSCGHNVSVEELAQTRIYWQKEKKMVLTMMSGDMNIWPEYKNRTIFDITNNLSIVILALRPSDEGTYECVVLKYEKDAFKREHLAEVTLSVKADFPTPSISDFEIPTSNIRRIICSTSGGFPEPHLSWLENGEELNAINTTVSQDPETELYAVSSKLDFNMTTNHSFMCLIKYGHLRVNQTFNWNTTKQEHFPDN
# T5: B7-H2
# T5 construct: one of the 'other B7-family proteins'; Commonly known as ICOS ligand
# T5 chain: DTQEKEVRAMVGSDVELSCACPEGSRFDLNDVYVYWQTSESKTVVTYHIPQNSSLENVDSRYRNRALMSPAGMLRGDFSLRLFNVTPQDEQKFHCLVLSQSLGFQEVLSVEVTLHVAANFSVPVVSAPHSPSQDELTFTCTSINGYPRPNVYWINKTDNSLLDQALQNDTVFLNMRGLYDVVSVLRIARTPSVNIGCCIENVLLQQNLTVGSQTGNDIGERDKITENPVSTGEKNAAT
# T6: recombinant human B7-H4 (human, UniProt Q7Z7D3 29-258, limits assumed)
# T6 construct: also called Recombinant B7-H4 (Human)
# T6 sequence (looked up): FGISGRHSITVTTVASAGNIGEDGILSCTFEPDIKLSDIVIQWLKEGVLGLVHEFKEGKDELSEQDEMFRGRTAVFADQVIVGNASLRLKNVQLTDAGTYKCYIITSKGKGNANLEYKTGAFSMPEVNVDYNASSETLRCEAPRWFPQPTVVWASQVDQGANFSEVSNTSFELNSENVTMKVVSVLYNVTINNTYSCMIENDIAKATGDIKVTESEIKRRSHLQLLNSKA
# B1: 23B6C2 (mouse monoclonal anti-B7-H4 antibody) (antibody, V domains shown)
# VH: QVTLKESGPGILQPSQTLSLTCSFSGFSLSTFGMGVGWIRQPSGKGLEWLAHIWWDDDKYYNSALKSRLTISKETSKNQIFLKIANVDTTDTATYYCVRKDYYGYRGFAYWGQGTLVTVSA
# VL: QLVLTQSSSASFSLGASAKLTCTLSSQHTTYTIEWYQQQPLKPPKYVMELKKDGSHSTGDGIPDRFSGSSSGADRYLCISNIQPEDEAIYICGVGDTIKEQFVYVFGGGTKVTVL
# notes: Mouse hybridoma antibody, detected with anti-mouse IgG Fc; also called 23B6C2 (from mouse)
# B2: 16E3H3 M1 x 1A10 M12 anti-B7-H4/anti-4-1BB bispecific antibody (bispecific antibody, human IgG1, kappa, N297A)
# heavy: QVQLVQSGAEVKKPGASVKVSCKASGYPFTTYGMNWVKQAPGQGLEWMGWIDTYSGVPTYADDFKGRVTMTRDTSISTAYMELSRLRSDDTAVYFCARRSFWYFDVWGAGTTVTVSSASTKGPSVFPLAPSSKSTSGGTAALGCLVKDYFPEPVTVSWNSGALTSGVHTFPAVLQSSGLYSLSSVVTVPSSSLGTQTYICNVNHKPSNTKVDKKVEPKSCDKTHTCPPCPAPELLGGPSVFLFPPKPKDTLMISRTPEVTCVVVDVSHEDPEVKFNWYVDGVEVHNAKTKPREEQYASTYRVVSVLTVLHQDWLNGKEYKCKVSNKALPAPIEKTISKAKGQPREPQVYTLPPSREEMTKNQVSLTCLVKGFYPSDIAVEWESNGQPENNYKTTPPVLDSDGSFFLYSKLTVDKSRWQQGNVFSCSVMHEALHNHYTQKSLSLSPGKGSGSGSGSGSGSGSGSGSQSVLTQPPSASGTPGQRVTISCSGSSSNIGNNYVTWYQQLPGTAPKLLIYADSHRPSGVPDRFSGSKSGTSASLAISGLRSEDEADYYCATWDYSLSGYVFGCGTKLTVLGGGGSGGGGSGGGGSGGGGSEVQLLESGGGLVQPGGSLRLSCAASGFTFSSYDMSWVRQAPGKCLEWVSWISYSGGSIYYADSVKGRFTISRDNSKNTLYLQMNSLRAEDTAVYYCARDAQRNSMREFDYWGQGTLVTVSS
# light: DVVMTQSPLSLPVTLGQPASISCRSSQSLVHSNANTYLHWYLQRPGQSPRLLIYKVSNRFSGVPDRFSGSGSGTDFTLKISRVEAEDVGVYFCSQSTHVPWTFGGGTKVEIKRTVAAPSVFIFPPSDEQLKSGTASVVCLLNNFYPREAKVQWKVDNALQSGNSQESVTEQDSKDSTYSLSSTLTLSKADYEKHKVYACEVTHQGLSSPVTKSFNRGEC
# notes: IgG-scFv format: anti-B7-H4 IgG1 (N297A) heavy chain, (GS)9 linker, anti-4-1BB scFv 1A10 M12 (VL-(GGGGS)4-VH) at the C-terminus; also called B10317; 16E3H3 M1×1A10M12
# B3: 73B4F10 (mouse monoclonal anti-B7-H4 antibody) (antibody, V domains shown)
# VH: QVQLQQPGTELVKPGASVKLSCKASGYTFTSYWMHWVKQRPGQGLERIGHINPSNGGTNYNEKFKKKATLTVDKSSSTAYMQLSSLTSEDSAVYYCARSEFYYGTVFAYWGQGTLVTVSA
# VL: DVLMTQTPLSLPVSLGDQASISCRSSQSIVHGNGNTYLEWYLQKPGQSPKLLIYKVSNRFSGVPDRFSGSGSGTDFTLKISRVEAEDLGVYYCFQGSHDPPTFGGGTKLEIK
# notes: Mouse hybridoma antibody, detected with anti-mouse IgG Fc; also called 73B4F10 (from mouse)
# B4: 16E3H3 (mouse monoclonal anti-B7-H4 antibody) (antibody, V domains shown)
# VH: QIQLVHSGPELKKPGETVKISCKASGYPFTTYGMNWVKQAPGKGLKWMGWIDTYSGVPTYADDFKGRFAFSLETSASTAYLQINNLKNEDTATYFCARRSFWYFDVWGTGTTVTVSS
# VL: DVVMTQTPLSLPVSLGDQASISCRSSQSLVHSNGNTYLHWYLQKPGQSPKLLIYKVSNRFSGVPDRFSGSGSGTDFTLKIRRVEAEDLGVYFCSQSTHVPWTFGGGTKLEIK
# notes: Mouse hybridoma antibody, detected with anti-mouse IgG Fc; also called 16E3H3 (from mouse); 16E3H3 clone
# Columns and labels:
# [1] = target: T1, human B7-H4 expressed on cells (CHOK-1 …); experiment: FACS on CAMA-1 cells, 100 nM antibody, FITC anti-mouse IgG Fc detection (FL1-H)
# Protocol: (§1) To evaluate the antigen binding property, the mouse antibody candidates generated according to Preparation Example 1-1 were analyzed for their bindings to B7-H4 expressed cells (SK-BR3, CAMA-1 and MDA-MB-468) or B7-H4 negative expressed cell (PANC-1). Briefly, each cells were treated with the 100 nM of indicated antibodies at 4° C. for 1 hr. After washing by FACS buffer (1% BSA in PBS), Cells were incubated with the FITC anti-mouse IgG Fc antibody at 4° C. for 1 hr and then subjected to FACS analysis. As shown FIG. 1, anti-B7-H4 mouse antibodies bound to B7-H4 expressed SK-BR3, CAMA-1 and MDA-MB-468 cell lines but not B7-H4 negative PANC-1. […] Based on the ranking results, 16E3H3 clone was selected for humanization.
# [2] = target: T1, human B7-H4 expressed on cells (CHOK-1 …); experiment: FACS on SK-BR3 cells, 100 nM antibody, FITC anti-mouse IgG Fc detection (FL1-H)
# Protocol: as §1
# [3] = target: T1, human B7-H4 expressed on cells (CHOK-1 …); experiment: FACS on MDA-MB-468 cells, 100 nM antibody, FITC anti-mouse IgG Fc detection (FL1-H)
# Protocol: as §1
# B7-H6 = target: T2, B7-H6; experiment: ELISA on plate-coated B7-H6 (100 ng/well), three-fold dilutions of B10317 from 100 nM
# Protocol: (§2) To confirm the specific binding of anti-B7-H4/anti-4-1BB bispecific antibody against B7-H4, B10317 subjected to ELISA test. Microtiter plates were coated with each protein (100 ng/well) at 4° C. overnight, then blocked with 200 μl/well PBSB (1% (w/v) BSA in PBS). Three-fold dilutions of B10317 starting from 100 nM was added to each well and incubated at 37° C. for 1 hours. The plates were washed with PBST (0.05% (v/v) Tween20 in PBS) and then incubate for 1 hours at 37° C. with 100 ul of Anti-Fc HRP (Dilution factor, 1:30000) or Anti-Fab HRP (Dilution factor, 1:20000). The plates were washed with PBST (0.05% (v/v) Tween20 in PBS) and then the plates were developed with TMB substrate and analyzed by spectrophotometer at 450-650 nm.
# [4] = target: T1, human B7-H4 expressed on cells (CHOK-1 …); experiment: FACS on MX-1 cells, FITC anti-human IgG detection; table under the graph prints no unit, x axis is Ab, Log[nM]
# Protocol: (§3) To evaluate the tumor antigen binding property, B10317 bispecific antibody was analyzed for its binding to B7-H4-expressing mammalian cells by FACS. Briefly, B7-H4 positive cells (MX-1 and CAMA-1) were incubated with B10317 antibodies. After wash by FACS buffer (1% BSA in PBS), the FITC-anti-human IgG antibody was added to each well and incubated at 4° C. for 45 min. The MFI of FITC was evaluated by FACS Calibur.
# [5] = target: T7, Recombinant 4-1BB (Monkey) protein (Monkey); experiment: SPR, antibody captured on Protein A chip, 4-1BB 250 nM to 15.625 nM as analyte
# T7 construct: also called monkey 4-1BB
# Protocol: (§4) In the SPR experiment, the anti-B7-H4/anti-4-1BB bispecific antibody obtained in Preparation Example 3 was captured on flow-cells 2, 3 and 4, keeping the flow-cell 1 as reference, on a Protein A Chip on which an anti-B7-H4/anti-4-1BB Bispecific antibody (B10317) has been immobilized by amine coupling. Recombinant B7-H4 (Human/Monkey) or 4-1BB (Human/Monkey) protein was flowed across the chip at concentration range from 100 nM to 6.25 nM for B7-H4 or 250 nM to 15.625 nM for 4-1BB at 30 μl/min for 60 seconds, followed by a dissociation phase of 180 seconds. Regeneration was performed with 10 mM Glycine-HCl (pH 1.5).
# [6] = target: T1, human B7-H4 expressed on cells (CHOK-1 …); experiment: FACS on CAMA-1 cells, FITC anti-human IgG detection; table under the graph prints no unit, x axis is Ab, Log[nM]
# Protocol: as §3
# B7-2 = target: T3, B7-2; experiment: ELISA on plate-coated B7-2 (100 ng/well), three-fold dilutions of B10317 from 100 nM
# Protocol: as §2
# [7] = target: 4-1BB on GloResponse NFκB-luc2/4-1BB Jurkat cells (UniProt Q07011 24-255, limits assumed); experiment: cell-based or functional assay
# B7-1 = target: T4, B7-1; experiment: ELISA on plate-coated B7-1 (100 ng/well), three-fold dilutions of B10317 from 100 nM
# Protocol: as §2
# B7-H2 = target: T5, B7-H2; experiment: ELISA on plate-coated B7-H2 (100 ng/well), three-fold dilutions of B10317 from 100 nM
# Protocol: as §2
# recombinant human B7-H4 = target: T6, recombinant human B7-H4; experiment: SPR, antibody captured on Protein A chip, B7-H4 100 nM to 6.25 nM as analyte
# Protocol: as §4
# [8] = target: T8, Recombinant B7-H4 (Monkey) protein (Monkey); experiment: as above
# T8 construct: also called monkey B7-H4
# Protocol: as §4
# Chain of 4-1BB on GloResponse NFκB-luc2/4-1BB Jurkat cells (Q07011 24-255 limits assumed): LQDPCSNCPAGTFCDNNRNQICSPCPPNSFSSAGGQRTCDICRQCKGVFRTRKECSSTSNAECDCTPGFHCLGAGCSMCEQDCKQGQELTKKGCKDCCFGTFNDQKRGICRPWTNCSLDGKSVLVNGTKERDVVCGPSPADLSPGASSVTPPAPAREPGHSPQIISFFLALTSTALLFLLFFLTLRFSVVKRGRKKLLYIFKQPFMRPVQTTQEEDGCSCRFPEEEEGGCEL
binder,measurement,setting,value
B1,MFI,[1],47.4
same,MFI,[2],7.85
same,MFI,[3],22
B2,binding result,B7-H6,no binding (tested: 100 nM)
same,EC50,[4],10.3 nM
same,Kd,[5],4.01 nM
same,koff,[5],0.000899 s⁻¹
same,kon,[5],224000 M⁻¹ s⁻¹
same,EC50,[6],6.46 nM
same,binding result,B7-2,no binding (tested: 100 nM)
same,"EC50 (nM) [NF-kB assay], with B-CAG-hB7-H4 MC38 cells",[7],0.093 nM
same,"EC50 (nM) [NF-kB assay], with CAMA-1 cells",[7],0.145 nM
same,"EC50 (nM) [NF-kB assay], with HCC1954 cells",[7],0.647 nM
same,"EC50 (nM) [NF-kB assay], with MDA-MB-468 cells",[7],0.403 nM
same,"EC50 (nM) [NF-kB assay], with MX-1 cells",[7],0.184 nM
same,"EC50 (nM) [NF-kB assay], with OVCAR3 cells",[7],0.288 nM
same,"EC50 (nM) [NF-kB assay], with SK-BR3 cells",[7],0.234 nM
same,"Fold of Induction [NF-kB assay], with B-CAG-hB7-H4 MC38 cells",[7],76.1 fold
same,"Fold of Induction [NF-kB assay], with CAMA-1 cells",[7],44.3 fold
same,"Fold of Induction [NF-kB assay], with CHOK1 cells (B7-H4 negative)",[7],1.49 fold
same,"Fold of Induction [NF-kB assay], with HCC1954 cells",[7],3.01 fold
same,"Fold of Induction [NF-kB assay], with MC38 cells (B7-H4 negative)",[7],2.32 fold
same,"Fold of Induction [NF-kB assay], with MDA-MB-468 cells",[7],6.74 fold
same,"Fold of Induction [NF-kB assay], with MX-1 cells",[7],62.9 fold
same,"Fold of Induction [NF-kB assay], with OVCAR3 cells",[7],5.02 fold
same,"Fold of Induction [NF-kB assay], with PANC1 cells (B7-H4 negative)",[7],1.11 fold
same,"Fold of Induction [NF-kB assay], with SK-BR3 cells",[7],30.8 fold
same,binding result,B7-1,no binding (tested: 100 nM)
same,binding result,B7-H2,no binding (tested: 100 nM)
same,Kd,recombinant human B7-H4,4.36 nM
same,koff,recombinant human B7-H4,0.00225 s⁻¹
same,kon,recombinant human B7-H4,517000 M⁻¹ s⁻¹
same,Kd,[8],4.53 nM
same,koff,[8],0.00278 s⁻¹
same,kon,[8],614000 M⁻¹ s⁻¹
B3,MFI,[1],29
same,MFI,[2],5.95
same,MFI,[3],20.1
B4,MFI,[1],463
same,MFI,[2],25.3
same,MFI,[3],77.6
